Assay results taken from the supplement of paper PMC9732359.
± gives the uncertainty stated by the source.

Experiment: protein stability index of a GFP-peptide fusion (yeast GPS) (PSI 1-4); higher = more stable; sorted into four equal gates, so the index is relative within each strain
Procedure, shortened: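 Sequencing reads from sorted gates were used to score each peptide. The library consisted of tiled 17-residue yeast protein peptides fused downstream of GFP on a Cherry-expressing plasmid, pooled and carried in yeast. Mid-log cultures in leucine-free medium were split into four equal gates by GFP/Cherry ratio, and each gate's plasmids were PCR-amplified and Illumina-sequenced. The protein stability index adds up, over all gates, the read frequency multiplied by the gate number.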

Sequence | protein stability index (doa10∆) | protein stability index (pdr5∆) | protein stability index (ubr1∆) | protein stability index (san1∆)
ATLYIPKALRFDRLVAG [FAS2] | 2.88 ± 0.22 | 1.23 ± 0.068 | 1.44 ± 0.09 | –
TRRFVNVTLVNGKRRMN [RPS30A] | 1.67 ± 0.055 | 1.51 ± 0.038 | 2.37 ± 0.038 | 1.73 ± 0.084
KNSDVWFLDHNYIENMN [RPN8] | 2.68 ± 0.1 | 2.44 ± 0.094 | 2.41 ± 0.057 | 2.57 ± 0.11
RQGRSNRRGMLALSGTS [SNF5] | 2.89 ± 0.068 | 2.97 ± 0.057 | 2.74 ± 0.051 | 2.81 ± 0.058
IIDHIPGHSLLLSIKLP [SNF5] | 1.96 ± 0.066 | 1.61 ± 0.045 | 2.23 ± 0.04 | 1.53 ± 0.11
FGHIDLAKPVFHVGFIA [RPO21] | 2.37 ± 0.072 | 2.7 ± 0.085 | 2.63 ± 0.06 | 2.73 ± 0.052
RILKNVSPNDNNSANNN [YMR153W/NUP53] | 2.75 ± 0.052 | 2.42 ± 0.048 | 2.59 ± 0.044 | 2.29 ± 0.054
HDLLQIIHFHSHPEKRM [SSN3] | 2.62 ± 0.053 | 2.71 ± 0.053 | 2.79 ± 0.039 | 2.65 ± 0.046
EMEVDAEGEEVEVKAEI [RPN1] | 3.48 ± 0.091 | 3.74 ± 0.24 | 3.39 ± 0.079 | 3.55 ± 0.093
SNGNNLPLNKPRLEKLI [RGR1] | 3.27 ± 0.052 | 3.36 ± 0.056 | 3.16 ± 0.063 | 3.18 ± 0.055
DHQHILRKLKKMNNKPE [RPC53] | 1.87 ± 0.053 | 1.7 ± 0.06 | 1.51 ± 0.044 | 1.78 ± 0.1
REVENSVSLLNSDIANL [SMC1] | 2.8 ± 0.063 | 2.59 ± 0.077 | 2.86 ± 0.072 | 2.99 ± 0.07
KPDVTYADVGGLDMQKQ [RPT3] | – | 3.69 ± 0.14 | 3.35 ± 0.21 | 3.47 ± 0.24
EGHLAEIRAKEYKTSSD [SRB2] | 3.22 ± 0.11 | 3.29 ± 0.081 | 3.26 ± 0.078 | 3.18 ± 0.051
LTFNSKNIQSKDSYINA [FAS2] | 2.84 ± 0.16 | 2.72 ± 0.076 | 2.68 ± 0.12 | 2.73 ± 0.17
NPIDPFNIIREFRSAAG [YDL116W/NUP84] | 3.14 ± 0.074 | 3.14 ± 0.07 | 3.09 ± 0.063 | 3.16 ± 0.043
PFVPVLDRRFEIFFKKD [FAS1] | 2.87 ± 0.059 | 2.98 ± 0.067 | 2.86 ± 0.057 | 2.73 ± 0.055
HHELIKVKHDSQPFIKF [SSN2] | 3.14 ± 0.085 | 2.71 ± 0.099 | 2.88 ± 0.06 | 2.86 ± 0.11
DAGKLVYVTGGRNLGRI [RPS4A] | 2.76 ± 0.1 | 1.99 ± 0.12 | 1.89 ± 0.28 | 3.08 ± 0.17
SEGFEPTFSTHAQLLLS [PRP8] | 1.96 ± 0.038 | 2.08 ± 0.037 | 1.97 ± 0.034 | 1.66 ± 0.048
ATSFSRKKARTFDSSWN [FAS2] | 2.22 ± 0.17 | 2.99 ± 0.18 | 3.05 ± 0.076 | 2.65 ± 0.16
QQQLRNQIQRQQQQQFR [SNF5] | 1.43 ± 0.18 | – | 1.55 ± 0.061 | 1.4 ± 0.21
EALLVVLVSSVTEANII [RPS12] | – | 1.15 ± 0.14 | 1.13 ± 0.11 | –
PVGSYEREQCRAGGAAA [PRE7] | 3.02 ± 0.24 | 2.98 ± 0.18 | 2.78 ± 0.097 | 3.32 ± 0.17
SPVYDVDPRIINSENDY [NUT1] | 2.92 ± 0.08 | 3.02 ± 0.074 | 2.76 ± 0.059 | 2.39 ± 0.08
ALIKFMEYHISNTDETK [FAS2] | 2.77 ± 0.1 | 2.5 ± 0.077 | 2.3 ± 0.055 | 2.59 ± 0.12
KVSGVSLLALWKEKKEK [RPS23A] | 2.55 ± 0.22 | 1.59 ± 0.1 | 1.77 ± 0.11 | 1.78 ± 0.1

Sequence | protein stability index (doa10∆) | protein stability index (pdr5∆) | protein stability index (ubr1∆) | protein stability index (san1∆)
EKIMENKYPELLGKDNE [AAR2] | 3.04 ± 0.073 | 3.24 ± 0.062 | 2.96 ± 0.045 | 3.24 ± 0.039
EEYARRLAEFKRRKLDL [SMC4] | 3.13 ± 0.13 | 3.46 ± 0.12 | 3.31 ± 0.08 | 2.72 ± 0.1
QITIEPGVDVEVVVASN [RPS20] | 2.53 ± 0.061 | 2.57 ± 0.099 | 2.51 ± 0.066 | 3.01 ± 0.098
VVESVGAEVDEARINEL [RPP2B] | 3.23 ± 0.11 | 3.21 ± 0.091 | 3.47 ± 0.15 | 3.35 ± 0.095
TANALPLPAVFSAPIRP [RPL4A] | 1.79 ± 0.042 | 2.1 ± 0.042 | 1.98 ± 0.04 | 1.87 ± 0.065
LTSVTNDICSVENYETS [SIR4] | 2.18 ± 0.052 | 2.35 ± 0.057 | 1.84 ± 0.059 | 1.88 ± 0.062
IESFVELGVSIYDFPGT [NUT2] | 2.83 ± 0.081 | 3.07 ± 0.095 | 2.2 ± 0.038 | 2.53 ± 0.09
FSFGGTQTGQNTGPSTG [YGL172W/NUP49] | 3.59 ± 0.23 | 3.34 ± 0.17 | 3.1 ± 0.11 | 3.18 ± 0.1
VGFGESNFTSIIGPNGS [SMC1] | 3.37 ± 0.09 | 3.34 ± 0.078 | 3.07 ± 0.054 | 3.15 ± 0.047
MLLITSGDSGVYTLACR [RPC11] | 1.58 ± 0.1 | 2.45 ± 0.13 | 2.46 ± 0.088 | 3 ± 0.093
KLYFQLFLNTGCLSVLY [SRP68] | 1.47 ± 0.038 | 1.19 ± 0.041 | 1.21 ± 0.043 | 1.19 ± 0.1
FLLTQSKVSIEQRKEAA [RPN7] | 2.27 ± 0.13 | 2.53 ± 0.15 | 2.48 ± 0.058 | 2.42 ± 0.088
LSGLSADKPFTRLTAYQ [YML031W/NDC1] | 2.95 ± 0.058 | 3.14 ± 0.06 | 2.97 ± 0.063 | 2.95 ± 0.058
KIESSVESQFSAGRLYA [RPS8A] | 2.81 ± 0.11 | 2.85 ± 0.087 | 2.77 ± 0.13 | 1.96 ± 0.15
SQESINQKLALVIKSGK [RPL30] | 2.32 ± 0.097 | 2.65 ± 0.13 | 2.4 ± 0.058 | 2.31 ± 0.11
QDLILDLKKKLNSLKDE [SMC4] | 2.39 ± 0.083 | 2.82 ± 0.2 | 1.57 ± 0.062 | 2.01 ± 0.076
NEESTNERLEINQEKPV [SIR4] | 3.31 ± 0.18 | 3.32 ± 0.13 | 3.36 ± 0.1 | 3.37 ± 0.092
VEFINKMENFEFLPLSL [SRB8] | 3.08 ± 0.16 | 3 ± 0.069 | 3.16 ± 0.097 | 3.1 ± 0.12
RFVMPNQLLAALVAYTP [RRP6] | 1.83 ± 0.041 | 1.84 ± 0.045 | 1.71 ± 0.032 | 1.39 ± 0.07
LKKELKLLAKELEEQES [SMC2] | 2.81 ± 0.088 | 3.14 ± 0.063 | 3.31 ± 0.07 | 2.9 ± 0.09
EVCAKMPNIELYLKVIP [SSN2] | 2.71 ± 0.047 | 2.51 ± 0.045 | 2.26 ± 0.039 | 2.48 ± 0.052
AASWYGSFNEMKRNCGQ [RMP1] | 2.92 ± 0.051 | 3.3 ± 0.054 | 3.21 ± 0.045 | 3.06 ± 0.052
EEVQQAQTEIKLFNKWS [RPS5] | 3.17 ± 0.1 | 3.21 ± 0.096 | 3.27 ± 0.075 | 3.25 ± 0.076
ARTAANSIYCPTQTVAE [RPN6] | 2.63 ± 0.062 | 1.76 ± 0.067 | 2.04 ± 0.045 | 1.42 ± 0.11
LLINTNFNKFFKIWHGE [PCI8] | 1.37 ± 0.04 | 1.38 ± 0.04 | 1.37 ± 0.044 | 1.57 ± 0.061
LDRIPMHSYFIFKDLVT [COB] | 1.92 ± 0.11 | 1.91 ± 0.12 | 1.67 ± 0.069 | 1.88 ± 0.12
